Test results from PMC9762252.

System: O=C(O)C(=O)/C=C/c1ccccc1O
Assay: purified protein
Settings: 50 mM Na2HPO4 pH 7.2, 22 °C

Substance	Km	kcat	kcat/Km
NahE (His-tag NahE) (Pseudomonas putida; N157A)	8 ± 1 µM	0.13 s⁻¹	16000 M⁻¹ s⁻¹
NahE (His-tag NahE) (Pseudomonas putida; N157L)	60 ± 10 µM	0.6 s⁻¹	10000 M⁻¹ s⁻¹
NahE (His-tag NahE) (Pseudomonas putida; T65S)	1.7 ± 0.3 µM	0.0085 s⁻¹	5000 M⁻¹ s⁻¹
NahE (His-tag NahE) (Pseudomonas putida; T65V)	21 ± 8 µM	0.004 s⁻¹	190 M⁻¹ s⁻¹
NahE (His-tag NahE) (Pseudomonas putida; W128F)	8 ± 2 µM	8 s⁻¹	1e+06 M⁻¹ s⁻¹
NahE (His-tag NahE) (Pseudomonas putida; W128Y)	7 ± 1 µM	5 s⁻¹	700000 M⁻¹ s⁻¹
NahE (His-tag NahE) (Pseudomonas putida; Y155F)	4 ± 1 µM	0.004 s⁻¹	1000 M⁻¹ s⁻¹
